Experimental data: the DeepSol protein solubility set

Assay: soluble on expression in E. coli; label from the status in PepcDB or PDB records

| Sequence | soluble on expression in E. coli |
| --- | --- |
| MSRFFHAKEDSDSDTSSSEDEVEDQKVNKSAKFRDDLDFMAGPEEDEKRVVRAQKDKKFDELKGIIKQNRDAKSNKDLNRLLTGFDSLAKAYDKSKTVFQRQNVANPRFYIRSLVEIEDYVNKLWDDKDAKSALSKNNAKALPPLRQKLKKYIKDQQLQDLVTDYRVNPDEDGYETPEDEDDDDFGEVSESKAEKSPGKPSEKAAVSDSDSDSDDDDSSNWSSEPESNSSDDEDSVTKMEQLRRYFLKKEFRVESKDDKKEKKKRVIRVKEAVEEDDDADWTPVNREKSVVHFDPKEEVTHDVMIKKLNEVMSARGKRTTDRNQHVANLRKLLEVSEEKELGLGINVKISFCIISALFELNAKISDHMEYETFMTTLQTVNSLLDLLIGTDRVKLSVTYAEEDENLKDDTQEYRIQGSILIAVQRLDGELAKILQNADCHSNDYIEKLKAEKDMCSLIEKAEKYVELRNDSGIFDKHEVCKVYMMRIEHAYYKYQDQNEEDAGKLMDYLCNKIYTLDDEKRLRQRAMLCHVYYLAVHDKWHRARDLLLMSHMQAIVDHSDVDTQILYNRTICQLGLCAFRHGFIREAHQGLSEIQNTQRAKELLAQAVGTRQHEKTAEQEKIDRSRQVPYHMHINVELMECVYLICSMLLEIPHMASCEFEMRRRMLSRSFHYQLKQSEKASLTGPPENTREHVVAASKAMLNGDWKKCQDYIVNDKMNQKVWNLFHNAETVKGMVVRRIQEESLRTYLLTYSTVYATVSLKKLADLFELSKKDVHSIISKMIIQEELSATLDEPTDCLIMHRVEPSRLQMLALNLSDKLQTLAENNEQILEPRTGRGGYQGPGSWFPGRNERQGDKQKGSGGYQGERRGGQGQDGKRGNWGSQGGQQRRHPQKPRAF | not soluble |
| EHRKVERGILAYQPGKLLVRGDTPLFKIERLLGIDLDHIEAETLAGLIYETLKRVPEEEEQMEVEGLRIIIKKMKGPKIVLAKVLKLD | not soluble |
| MSLNNKVLVTGGTGFVGMRIISRLLEQGYEVQTTIRDLSKADKVIKTMQDNGISTERLMFVEADLSQDEHWDEAMKDCKYVLSVASPVFFGKTDDAEVMAKPAIEGIQRILRAAEHAGVKRVVMTANFGAVGFSNKDKNSITNESHWTNEDEPGLSVYEKSKLLAEKAAWDFVENENTIVEFATINPVAIFGPSLDAHVSGSFHLLENLLNGSMKRVPQIPLNVVDVRDVAELHILAMTNEQANGKRFIATADGQINLLEIAKLIKEKRPEIAQKVSTKKLPDFILSLGAKFNHQAKEGKLLLDMNRNVSNERAKTLLGWEPIATQEEAILAAIDSMAKFHLIEGHHHHHH | soluble |
| MGSDKIHHHHHHMTTSTNERTTRAELQDAPRVARLHPQPDYRISVGGRDLSRLFAPRLVSLSISESRSDEADTIDIVLDDSKNDLDIPKRGATIKASIGWAGEPLVDKGSFVVNEVEHSGAPDIITIRARSAAMTSGMQERREKSWHRQTIGSIVHAIAGRYSLSPTVGDALAKILIAHIDQTHESDMSFLTRLAKRYDAVMNVKDLRLLFMPIGTGQTATGKKLDVLELTRASGDSHRYHVSERENYAAVRAHYHSTGRAKRKSVIVGGENNKNVKVLPEDYATEAEARAAAQAEFKRMQRSQATMSYTLARGRAELFPEMPVTVSGFKPEIDETPWLVKKATHTIGDVGFTTALELEMRDDPTTERHRSHFQGSR | not soluble |
| MGSDKIHHHHHHMNQHTLLPKKTERLQYFGSVSPIKGEKPVEKEKMKDLQNIRKDYFFDIQHVGVANVSHPVTITSAMMPAEQTTAANFTMTCNLPRNQKGINMSRLTELLQVYHQNGWILSFSSLQQFTKELAENMDTSSATVEVRFPWFFERKSPKLEKAGLMHADIFMSVTYRKDQPFKQRAGISAKVTTLCPCSKEISEYSAHNQRGTVKHLGRIFTRAASLPSDVKADLPHAAESNASARLHPVLKRPDEKAVTETAYENPRFVEDLARLIAADLFELEWVSAFEIECRNEESIHLHRCLCEVCFSKEVDKI | not soluble |
| MGSMRICIFMARGLEGCGVTKFSLEQRDWFIKNGHEVTLVYAKDKSFTRTSSHDHKSFSIPVILAKEYDKALKLVNDCDILIINSVPATSVQEATINNYKKLLDNIKPSIRVVVYQHDHSVLSLRRNLGLEETVRRADVIFSHSDNGDFNKVLMKEWYPETVSLFDDIEEAPTVYNFQPPMDIVKVRSTYWKDVSEINMNINRWIGRTTTWKGFYQMFDFHEKFLKPAGKSTVMEGLERSPAFIAIKEKGIPYEYYGNREIDKMNLAPNQPAQILDCYINSEMLERMSKSGFGYQLSKLNQKYLQRSLEYTHLELGACGTIPVFWKSTGENLKFRVDNTPLTSHDSGIIWFDENDMESTFERIKELSSDRALYDREREKAYEFLYQHQDSSFCFKEQFDIITK | soluble |
